Test results as given in article PMC5549631.

Tests used:
[1] = target: recombinant nucleosome labelled with Oregon Green 488 on histone H4 Q27C (Xenopus) (UniProt P62799); assay: other fluorescence titration
[2] = target: acidic patch mutant nucleosome (H2A E61A, E64A, D90, E92A) (Xenopus) (UniProt P06897); assay: other fluorescence titration
[3] = target: acidic patch mutant nucleosome (H2A E61A, E64A, D90, E92A) (Xenopus) (UniProt P06897)

Kd [1] | Kd [2] | histone methyltransferase activity on acidic patch mutant nucleosomes [3] | fold decrease of nucleosome binding affinity against Set8(153-352) [1] | Substance
7.9 nM | 1300 nM | 5.4% | – | Set8(153-352) (from UniProt Q9NQR1-2 153-352) (domain or fragment)
4.5 nM | – | – | – | Set8(153-352) H347F (from UniProt Q9NQR1-2 153-352) (domain or fragment)
– | – | – | 2.5 fold | Set8(153-352) R179A, K180A (from UniProt Q9NQR1-2 153-352) (domain or fragment)
2500 nM | – | – | – | Set8(153-352) R188A, R189A (from UniProt Q9NQR1-2 153-352) (domain or fragment)
1800 nM | – | – | – | Set8(175-352) (from UniProt Q9NQR1-2 175-352) (domain or fragment)
5.3 nM | 60 nM | – | – | full length Set8 (from UniProt Q9NQR1-2 1-352) (enzyme)
